These are literature values, as cited in paper PMC3760879.

This data set has as its target Asp97 (UniProt position 97, VFRYIDWLLTV). Particulars: dark/ground state implied (protonation of the acceptor group at neutral pH); not explicitly stated.

As for “Proteorhodopsin (PR) (uncultured marine gamma-proteobacterium (the article says only 'γ-proteobacteria'))”, the pKa entry was “around 7.2”.
